Biological target: T1, OB-RY1141F (Homo sapiens, UniProt P48357, Y1141F)
T1 construct: cells transfected with the full-length OB-R constructs; expressed in transfected cells; host or cells: COS-7
T1 sequence (P48357 22-1165 Y1141F): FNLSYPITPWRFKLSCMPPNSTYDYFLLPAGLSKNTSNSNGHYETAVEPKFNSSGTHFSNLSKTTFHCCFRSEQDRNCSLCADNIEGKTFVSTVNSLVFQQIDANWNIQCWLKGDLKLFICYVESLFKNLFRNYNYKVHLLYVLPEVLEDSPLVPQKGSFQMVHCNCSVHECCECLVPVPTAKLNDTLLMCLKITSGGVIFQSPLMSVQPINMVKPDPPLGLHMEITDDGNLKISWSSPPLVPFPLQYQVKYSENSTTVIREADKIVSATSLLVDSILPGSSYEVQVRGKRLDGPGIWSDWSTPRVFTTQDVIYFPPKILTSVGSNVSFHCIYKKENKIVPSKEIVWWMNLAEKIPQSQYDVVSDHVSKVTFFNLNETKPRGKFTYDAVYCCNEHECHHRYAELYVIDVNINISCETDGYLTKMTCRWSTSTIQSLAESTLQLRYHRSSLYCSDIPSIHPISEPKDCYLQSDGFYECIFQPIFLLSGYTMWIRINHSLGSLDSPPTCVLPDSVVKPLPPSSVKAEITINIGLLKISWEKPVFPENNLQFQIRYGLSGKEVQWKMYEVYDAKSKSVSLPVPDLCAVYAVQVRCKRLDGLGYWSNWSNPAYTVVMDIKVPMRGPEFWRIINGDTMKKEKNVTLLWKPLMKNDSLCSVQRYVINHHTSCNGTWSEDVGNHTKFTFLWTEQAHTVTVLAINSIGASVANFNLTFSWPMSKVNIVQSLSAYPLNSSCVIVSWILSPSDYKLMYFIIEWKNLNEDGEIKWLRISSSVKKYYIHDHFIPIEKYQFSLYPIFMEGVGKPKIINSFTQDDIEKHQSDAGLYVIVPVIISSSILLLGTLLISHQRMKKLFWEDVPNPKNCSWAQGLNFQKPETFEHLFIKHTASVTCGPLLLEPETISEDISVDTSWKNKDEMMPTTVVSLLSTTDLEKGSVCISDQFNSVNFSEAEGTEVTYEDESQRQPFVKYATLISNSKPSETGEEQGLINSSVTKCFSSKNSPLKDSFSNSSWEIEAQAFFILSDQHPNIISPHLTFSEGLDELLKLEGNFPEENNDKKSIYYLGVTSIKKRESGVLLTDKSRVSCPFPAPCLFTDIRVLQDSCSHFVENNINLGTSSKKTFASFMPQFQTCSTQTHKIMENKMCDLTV
Assay: Luciferase reporter gene assay (3(G3)-Cy6-LUC), leptin stimulation of COS cells expressing mutant OB-RY1141F
Assay type: cell-based
Settings: mutant construct OB-RY1141F, 100 ng/ml leptin for 24 hours
Procedure: The cytoplasmic domain and full-length human OB-R was cloned by PCR using human fetal liver and adipocyte cDNA (Clontech) and cloned into the expression vectors pCMX and pMT21. Chimeric receptors were constructed by fusing the extracellular domain and transmembrane domain of TrkC (amino acids 1 to 458) to the cytoplasmic domain of OB-R (amino acids 865-1165). A triple myc epitope tag was added at the C-terminus of all OB-R constructs (18). Truncation and point mutant constructs were generated by PCR and the sequences of all constructs were verified. Expression constructs were transfected into COS-7 cells using lipofectamine (GIBCO-BRL); 36-48 hours after transfection, cells were starved for either 2 hour,s for chimeric receptors or overnight for full-length receptors prior to stimulation.
Expression constructs (1 μg) for OB-R, OB-RY1141F, OB-RY986F, OB-RY1078, 1079F, and OB-RY986, 1141F were co-transfected with 1 μg of 3(G3)-Cy6-LUC and 0.1 μg of pCMX.LacZ into COS-7 cells (6-well dishes) using lipofectamine. The day after transfection, media was changed to serum-free OptiMEM (GIBCO-BRL) and then treated with 100 ng/ml murine leptin (PeproTech) or human leptin (R&D Systems) for 24 hours. […] Luciferase and β-galactosidase activities were measured in cell lysates (30) and luciferase activity was normalized to β-galactosidase activity to control for transfection differences. […]

leptin: the product of the obese gene, secreted by adipocytes; ligand of OB-R
induction of luciferase activity: no induction

From patent US20020012949A1, “Assay systems for leptin-enhancing agents” (priority 1997, published 2002)
